Measurements as given in US20200054723A1 (ALLAKOS, published 2020).

Biological target: T1, recombinant human Siglec-8 extracellular domain (ECD) (human, UniProt Q9NYZ4 17-363)
T1 construct: extracellular domain; also called Siglec-8 ECD; full Siglec-8 ECD
Assay: ELISA, coated Siglec-8 ECD

T1 sequence (Q9NYZ4 17-363): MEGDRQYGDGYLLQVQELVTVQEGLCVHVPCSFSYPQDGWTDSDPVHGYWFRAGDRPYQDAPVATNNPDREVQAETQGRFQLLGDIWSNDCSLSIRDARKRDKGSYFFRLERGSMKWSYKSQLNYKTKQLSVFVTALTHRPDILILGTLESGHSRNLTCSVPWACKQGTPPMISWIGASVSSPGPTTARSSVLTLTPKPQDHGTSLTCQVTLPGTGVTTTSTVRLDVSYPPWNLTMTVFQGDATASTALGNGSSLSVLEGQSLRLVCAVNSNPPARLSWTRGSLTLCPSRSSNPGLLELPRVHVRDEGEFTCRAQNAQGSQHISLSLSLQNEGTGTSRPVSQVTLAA

EC50 [nM]	Binder
0.088	HGKF (antibody, human IgG1, V domains shown, human IgG1/kappa) VH: EVQLVESGGGLVQPGGSLRLSCAASGFSLTIYGAHWVRQAPGKGLEWVSVIWAGGSTNYNSALMSRFSISKDNSKNTVYLQMNSLRAEDTAVYYCARDGSSPYYYSMEYWGQGTTVTVSS VL: EIVLTQSPATLSLSPGERATLSCSATSSVSYMHWFQQKPGQAPRLLIYSTSNLASGIPARFSGSGSGTDYTLTISSLEPEDFAVYYCQQRSSYPFTFGPGTKLDIK
207	RHE S-G KFmut (antibody, V domains shown, human IgG1/kappa) VH: EVQLVESGGGLVQPGGSLRLSCAASGFSLTIYGAHWVRQAPGKGLEWVGVIWAGGSTNYNSALMSRFTISKDNSKNTVYLQMNSLRAEDTAVYYCARDGSSPYYYGMEYWGQGTTVTVSS VL: EIVLTQSPATLSLSPGERATLSCSATSSVSYMHWFQQKPGQAPRLLIYSTSNLASGIPARFSGSGSGTDYTLTISSLEPEDFAVYYCQQRSSYPYTFGPGTKLDIK
50.6	RHE S-GKA (antibody, human IgG1, V domains shown, human IgG1/kappa) VH: EVQLVESGGGLVQPGGSLRLSCAASGFSLTIYGAHWVRQAPGKGLEWVGVIWAGGSTNYNSALMSRFTISKDNSKNTVYLQMNSLRAEDTAVYYCARDGSSPYYYGMEYWGQGTTVTVSS VL: EIVLTQSPATLSLSPGERATLSCSATSSVSYMHWFQQKPGQAPRLLIYSTSNLASGIPARFSGSGSGTDFTLTISSLEPEDFAVYYCQQRSSYPFTFGPGTKLDIK
0.306	RHE Y-VKB (antibody, human IgG1, V domains shown, human IgG1/kappa) VH: EVQLVESGGGLVQPGGSLRLSCAASGFSLTIYGAHWVRQAPGKGLEWVGVIWAGGSTNYNSALMSRFTISKDNSKNTVYLQMNSLRAEDTAVYYCARDGSSPYYYSMEVWGQGTTVTVSS VL: EIILTQSPATLSLSPGERATLSCSATSSVSYMHWFQQKPGQAPRLWIYSTSNLASGVPARFSGSGSGTDYTLTISSLEPEDFAVYYCQQRSSYPFTFGPGTKLDIK
1.4	RHE E-DKFmut (antibody, human IgG1, V domains shown, human IgG1/kappa) VH: EVQLVESGGGLVQPGGSLRLSCAASGFSLTIYGAHWVRQAPGKGLEWVGVIWAGGSTNYNSALMSRFTISKDNSKNTVYLQMNSLRAEDTAVYYCARDGSSPYYYSMDYWGQGTTVTVSS VL: EIVLTQSPATLSLSPGERATLSCSATSSVSYMHWFQQKPGQAPRLLIYSTSNLASGIPARFSGSGSGTDYTLTISSLEPEDFAVYYCQQRSSYPYTFGPGTKLDIK
0.316	RHE E-DKD (antibody, human IgG1, V domains shown, human IgG1/kappa) VH: EVQLVESGGGLVQPGGSLRLSCAASGFSLTIYGAHWVRQAPGKGLEWVGVIWAGGSTNYNSALMSRFTISKDNSKNTVYLQMNSLRAEDTAVYYCARDGSSPYYYSMDYWGQGTTVTVSS VL: EIVLTQSPATLSLSPGERATLSCSATSSVSYMHWFQQKPGQAPRLWIYSTSNLASGIPARFSGSGSGTDFTLTISSLEPEDFAVYYCQQRSSYPFTFGPGTKLDIK
0.364	RHE E-DKE (antibody, human IgG1, V domains shown, human IgG1/kappa) VH: EVQLVESGGGLVQPGGSLRLSCAASGFSLTIYGAHWVRQAPGKGLEWVGVIWAGGSTNYNSALMSRFTISKDNSKNTVYLQMNSLRAEDTAVYYCARDGSSPYYYSMDYWGQGTTVTVSS VL: EIVLTQSPATLSLSPGERATLSCSATSSVSYMHWFQQKPGQAPRLLIYSTSNLASGVPARFSGSGSGTDFTLTISSLEPEDFAVYYCQQRSSYPFTFGPGTKLDIK
13.2	RHE Triple-KD (antibody, human IgG1, V domains shown, human IgG1/kappa) VH: EVQLVESGGGLVQPGGSLRLSCAASGFSLTIYGAHWVRQAPGKGLEWVGVIWAGGSTNYNSALMSRFTISKDNSKNTVYLQMNSLRAEDTAVYYCARDGSSPYYYGMDVWGQGTTVTVSS VL: EIVLTQSPATLSLSPGERATLSCSATSSVSYMHWFQQKPGQAPRLWIYSTSNLASGIPARFSGSGSGTDFTLTISSLEPEDFAVYYCQQRSSYPFTFGPGTKLDIK
3.28	RHE S-GKF (antibody, human IgG1, V domains shown, human IgG1/kappa) VH: EVQLVESGGGLVQPGGSLRLSCAASGFSLTIYGAHWVRQAPGKGLEWVGVIWAGGSTNYNSALMSRFTISKDNSKNTVYLQMNSLRAEDTAVYYCARDGSSPYYYGMEYWGQGTTVTVSS VL: EIVLTQSPATLSLSPGERATLSCSATSSVSYMHWFQQKPGQAPRLLIYSTSNLASGIPARFSGSGSGTDYTLTISSLEPEDFAVYYCQQRSSYPFTFGPGTKLDIK
0.445	RHE E-DKF (antibody, human IgG1, V domains shown, human IgG1/kappa) VH: EVQLVESGGGLVQPGGSLRLSCAASGFSLTIYGAHWVRQAPGKGLEWVGVIWAGGSTNYNSALMSRFTISKDNSKNTVYLQMNSLRAEDTAVYYCARDGSSPYYYSMDYWGQGTTVTVSS VL: EIVLTQSPATLSLSPGERATLSCSATSSVSYMHWFQQKPGQAPRLLIYSTSNLASGIPARFSGSGSGTDYTLTISSLEPEDFAVYYCQQRSSYPFTFGPGTKLDIK
0.289	RHE E-DKB (antibody, human IgG1, V domains shown, human IgG1/kappa) VH: EVQLVESGGGLVQPGGSLRLSCAASGFSLTIYGAHWVRQAPGKGLEWVGVIWAGGSTNYNSALMSRFTISKDNSKNTVYLQMNSLRAEDTAVYYCARDGSSPYYYSMDYWGQGTTVTVSS VL: EIILTQSPATLSLSPGERATLSCSATSSVSYMHWFQQKPGQAPRLWIYSTSNLASGVPARFSGSGSGTDYTLTISSLEPEDFAVYYCQQRSSYPFTFGPGTKLDIK
0.254	HGKG (antibody, human IgG1, V domains shown, human IgG1/kappa; also called HGHG) VH: EVQLVESGGGLVQPGGSLRLSCAASGFSLTIYGAHWVRQAPGKGLEWVSVIWAGGSTNYNSALMSRFSISKDNSKNTVYLQMNSLRAEDTAVYYCARDGSSPYYYSMEYWGQGTTVTVSS VL: EIVLTQSPATLSLSPGERATLSCSATSSVSYMHWYQQKPGQAPRLLIYSTSNLASGIPARFSGSGSGTDFTLTISSLEPEDFAVYYCQQRSSYPFTFGPGTKLDIK
0.388	RHE E-DKA (antibody, human IgG1, V domains shown, human IgG1/kappa) VH: EVQLVESGGGLVQPGGSLRLSCAASGFSLTIYGAHWVRQAPGKGLEWVGVIWAGGSTNYNSALMSRFTISKDNSKNTVYLQMNSLRAEDTAVYYCARDGSSPYYYSMDYWGQGTTVTVSS VL: EIVLTQSPATLSLSPGERATLSCSATSSVSYMHWFQQKPGQAPRLLIYSTSNLASGIPARFSGSGSGTDFTLTISSLEPEDFAVYYCQQRSSYPFTFGPGTKLDIK
33.5	RHE S-GKG (antibody, human IgG1, V domains shown, human IgG1/kappa) VH: EVQLVESGGGLVQPGGSLRLSCAASGFSLTIYGAHWVRQAPGKGLEWVGVIWAGGSTNYNSALMSRFTISKDNSKNTVYLQMNSLRAEDTAVYYCARDGSSPYYYGMEYWGQGTTVTVSS VL: EIVLTQSPATLSLSPGERATLSCSATSSVSYMHWYQQKPGQAPRLLIYSTSNLASGIPARFSGSGSGTDFTLTISSLEPEDFAVYYCQQRSSYPFTFGPGTKLDIK
0.062	HGKFmut (antibody, human IgG1, V domains shown, human IgG1/kappa) VH: EVQLVESGGGLVQPGGSLRLSCAASGFSLTIYGAHWVRQAPGKGLEWVSVIWAGGSTNYNSALMSRFSISKDNSKNTVYLQMNSLRAEDTAVYYCARDGSSPYYYSMEYWGQGTTVTVSS VL: EIVLTQSPATLSLSPGERATLSCSATSSVSYMHWFQQKPGQAPRLLIYSTSNLASGIPARFSGSGSGTDYTLTISSLEPEDFAVYYCQQRSSYPYTFGPGTKLDIK
8.65	RHE S-GKD (antibody, human IgG1, V domains shown, human IgG1/kappa) VH: EVQLVESGGGLVQPGGSLRLSCAASGFSLTIYGAHWVRQAPGKGLEWVGVIWAGGSTNYNSALMSRFTISKDNSKNTVYLQMNSLRAEDTAVYYCARDGSSPYYYGMEYWGQGTTVTVSS VL: EIVLTQSPATLSLSPGERATLSCSATSSVSYMHWFQQKPGQAPRLWIYSTSNLASGIPARFSGSGSGTDFTLTISSLEPEDFAVYYCQQRSSYPFTFGPGTKLDIK
173	RHE S-GKC (antibody, human IgG1, V domains shown, human IgG1/kappa) VH: EVQLVESGGGLVQPGGSLRLSCAASGFSLTIYGAHWVRQAPGKGLEWVGVIWAGGSTNYNSALMSRFTISKDNSKNTVYLQMNSLRAEDTAVYYCARDGSSPYYYGMEYWGQGTTVTVSS VL: EIILTQSPATLSLSPGERATLSCSATSSVSYMHWFQQKPGQAPRLLIYSTSNLASGIPARFSGSGSGTDFTLTISSLEPEDFAVYYCQQRSSYPFTFGPGTKLDIK
0.088	RHE Y-VKA (antibody, human IgG1, V domains shown, human IgG1/kappa) VH: EVQLVESGGGLVQPGGSLRLSCAASGFSLTIYGAHWVRQAPGKGLEWVGVIWAGGSTNYNSALMSRFTISKDNSKNTVYLQMNSLRAEDTAVYYCARDGSSPYYYSMEVWGQGTTVTVSS VL: EIVLTQSPATLSLSPGERATLSCSATSSVSYMHWFQQKPGQAPRLLIYSTSNLASGIPARFSGSGSGTDFTLTISSLEPEDFAVYYCQQRSSYPFTFGPGTKLDIK
18.6	RHE Triple-KA (antibody, human IgG1, V domains shown, human IgG1/kappa) VH: EVQLVESGGGLVQPGGSLRLSCAASGFSLTIYGAHWVRQAPGKGLEWVGVIWAGGSTNYNSALMSRFTISKDNSKNTVYLQMNSLRAEDTAVYYCARDGSSPYYYGMDVWGQGTTVTVSS VL: EIVLTQSPATLSLSPGERATLSCSATSSVSYMHWFQQKPGQAPRLLIYSTSNLASGIPARFSGSGSGTDFTLTISSLEPEDFAVYYCQQRSSYPFTFGPGTKLDIK
0.516	RHE E-DKC (antibody, human IgG1, V domains shown, human IgG1/kappa) VH: EVQLVESGGGLVQPGGSLRLSCAASGFSLTIYGAHWVRQAPGKGLEWVGVIWAGGSTNYNSALMSRFTISKDNSKNTVYLQMNSLRAEDTAVYYCARDGSSPYYYSMDYWGQGTTVTVSS VL: EIILTQSPATLSLSPGERATLSCSATSSVSYMHWFQQKPGQAPRLLIYSTSNLASGIPARFSGSGSGTDFTLTISSLEPEDFAVYYCQQRSSYPFTFGPGTKLDIK
627	RHE S-GKB (antibody, human IgG1, V domains shown, human IgG1/kappa) VH: EVQLVESGGGLVQPGGSLRLSCAASGFSLTIYGAHWVRQAPGKGLEWVGVIWAGGSTNYNSALMSRFTISKDNSKNTVYLQMNSLRAEDTAVYYCARDGSSPYYYGMEYWGQGTTVTVSS VL: EIILTQSPATLSLSPGERATLSCSATSSVSYMHWFQQKPGQAPRLWIYSTSNLASGVPARFSGSGSGTDYTLTISSLEPEDFAVYYCQQRSSYPFTFGPGTKLDIK
34.1	RHE Triple-KE (antibody, human IgG1, V domains shown, human IgG1/kappa) VH: EVQLVESGGGLVQPGGSLRLSCAASGFSLTIYGAHWVRQAPGKGLEWVGVIWAGGSTNYNSALMSRFTISKDNSKNTVYLQMNSLRAEDTAVYYCARDGSSPYYYGMDVWGQGTTVTVSS VL: EIVLTQSPATLSLSPGERATLSCSATSSVSYMHWFQQKPGQAPRLLIYSTSNLASGVPARFSGSGSGTDFTLTISSLEPEDFAVYYCQQRSSYPFTFGPGTKLDIK
